Data reported in US12324447B2, “Animal feed compositions and uses thereof” (priority 2015, dated 2025).
“Also recorded” adds a separate entry of the source. Read-outs that look alike come from different tables or passages of the source.

Legend:
[1] = tested on: Exiguobacterium undea (DSM14481); assay: Lysozyme activity turbidity assay (optical density drop at 540 nm); assay type: biochemical, Exiguobacterium undae; conditions: for Lysozyme activity against Exiguobacterium undea (in words): OD drop assay
[2] = tested on: Micrococcus lysodeikticus ATTC No. 4698; assay: as above; conditions: for Lysozyme activity against Micrococcus lysodeikticus (in words): OD drop assay
[3] = tested on: Clostridium perfringens DSM756; assay type: cell-based; conditions: for Diameter of clearing zone (mm): lysozymes 100 μg/ml, Bacitracin zinc salt 50 μg/ml; for Antimicrobial activity against Clostridium perfringens (in words): RDA
[4] = Binding of LED to Avicel suspension (SDS gel of supernatant); conditions: for Binding of LED protein to crystalline cellulose (in words): 25 mM Na-Acetate, pH 4.5, 25 mM NaCl
[5] = tested on: Micrococcus lysodeiktikus ATCC No. 4698 cells; assay: Binding of LED to M. lysodeiktikus suspension (SDS gel of supernatant); conditions: for Binding of LED protein to M. lysodiektikus cells (in words): 25 mM Na-Acetate, pH 4.5, 25 mM NaCl
[6] = tested conditions (1/10 MHB pH 7 and 1/2 MHB pH 6)

B1: SEQ ID NO: 267: mature GH24 lysozyme from Trichoderma harzianum, comprising LED (protein, listed as Trichoderma harzianum)
chain: YPITGDVVNCRTGPGTSYAIKKSYKKNQDISISCQTAGTSVNGNSIWDKTADGCYVADYYVKTGSSGYVTKKCTASSGGGSSSSYCKTINSAGVDLIAKWEGFVASPKPDPIGLPTVGYGHLCQQKNCREVKYKFPLTKTTAKELLLDDLPKYTKCLADYLNDKPKLNANQWAALTSWVFNVGCGNAKTSTLVKRLNNGEAANTVAAEELPKWRMAGGKVLPGLEARRKDEVKLFKTASSKQAYPKCQ
modifications: mat_peptide (1)..(248)
notes: mature GH24 lysozyme from Trichoderma harzianum, comprising LED
With B1 the “Lysozyme activity against Exiguobacterium undea (in words)” value [1] was “good activity”, the “Lysozyme Activity against Exiguobacterium undae as measured by Optical Density Drop” value ([1]; assay pH 6 (Table 14)) was “++++” and the “Lysozyme activity against Micrococcus lysodeikticus (in words)” value [2] was “good activity”. For the same molecule, the “Lysozyme Activity against Micrococcus lysodeikticus as measured by Optical Density Drop” value ([2]; assay pH 6 (Table 14)) was “+++”, the “Diameter of clearing zone (mm)” value ([3]; Experiment 1, 1/2 MHB pH 6) was 12 mm and the “Diameter of clearing zone (mm)” value ([3]; Experiment 1, 1/10 MHB pH 7) was 10 mm. The “Diameter of clearing zone (mm)” value ([3]; Experiment 2, 1/10 MHB pH 7) was 8 mm, the “Antimicrobial activity against Clostridium perfringens (in words)” value (“Antimicrobial activity” for short) ([3]; 50% MHB, pH 6) was “significant activity” and the “Antimicrobial activity” value [3, 6] was “showed antimicrobial activity”.

B2: SEQ ID NO: 303: mature GH24 lysozyme from Geomyces auratus (protein, listed as Geomyces auratus)
chain: AFPITGSTVNCRTGPGTSHGVKTSYKKGHEVTVSCQTGGTSVNGNSIWDKTSDGCYVADYYVKTGSSGYVKPKCGSSSGGGGGSSCGAPKSNAATVNLIAEFEGFVSHVYTDATGHPTVGYGHLCSNSKCSGIGYSIPISKANAKKLLAKDMAIAEKCITAMINKSRTLNLNQYGALVSWAFNEGCGAAKSSTLIKRINNGEKPSTVIPQELPKWVYGGSSVLPGLVRRRNAEIALAKKATSSKALPAHC
modifications: mat_peptide (1)..(250)
notes: mature GH24 lysozyme from Geomyces auratus
With B2 the “Lysozyme activity against Exiguobacterium undea (in words)” value [1] was “good activity”, the “Lysozyme Activity against Exiguobacterium undae as measured by Optical Density Drop” value ([1]; assay pH 6 (Table 14)) was “++++” and the “Lysozyme activity against Micrococcus lysodeikticus (in words)” value [2] was “good activity”. The “Lysozyme Activity against Micrococcus lysodeikticus as measured by Optical Density Drop” value ([2]; assay pH 6 (Table 14)) was “+++”.

B3: SEQ ID NO: 306: mature GH24 lysozyme from Ilyonectria rufa (protein, listed as Ilyonectria rufa)
chain: YKITGDNVNCRSGPGTSYSVKRSFKKGTDVTLSCQTTGENVLGTSIWDKTSYGCYVSDYYVKTGSSGFVVKKCGTCGAPKSNAATVNLISDFEGFRANIYKDAAGYPTVGYGHLCSNSRCTDVPYSIPLSKANGKNLLATDMTKFEKCITAMVSSSVTLNKNQYGALVSWAFNMGCGATKTSTLIKRLNQGQNVNTVLSTELPKWVYAGGKKLNGLVRRRNAEIALAKKKTTEKALPNKC
modifications: mat_peptide (1)..(240)
notes: mature GH24 lysozyme from Ilyonectria rufa
With B3 the “Lysozyme activity against Exiguobacterium undea (in words)” value [1] was “good activity”, the “Lysozyme Activity against Exiguobacterium undae as measured by Optical Density Drop” value ([1]; assay pH 6 (Table 14)) was “++++” and the “Lysozyme activity against Micrococcus lysodeikticus (in words)” value [2] was “good activity”. For the same molecule, the “Lysozyme Activity against Micrococcus lysodeikticus as measured by Optical Density Drop” value ([2]; assay pH 6 (Table 14)) was “++”.

B4: SEQ ID NO: 264: mature GH24 lysozyme from Chaetomium thermophilum, comprising LED (protein, listed as Chaetomium thermophilum)
chain: PASAYAITGDNVNCRSGPGTSYAVKKVYKKGTDVKISCQTTGTNINGNNLWDKTSDGCYVSDYYVKTGSNGYVTSKCSSSGGSTCAAPKSNQATVDLIAEFEGFRANIYTDAAGYATVGYGHKCQKAKCAEVKYKIPLSKADGKKLLADDMRSFEVCITNMLNSKAKLNYNQFGALVSWSFNVGCGAAKSSTLIKRLNNGENVNKVLSEELPKWNKAGGKVLQGLVRRRAAEVALAKKSGSSQALPVKC
modifications: mat_peptide (1)..(249)
notes: mature GH24 lysozyme from Chaetomium thermophilum, comprising LED
In the case of B4, the “Lysozyme activity against Exiguobacterium undea (in words)” value [1] is reported as “good activity”, the “Lysozyme Activity against Exiguobacterium undae as measured by Optical Density Drop” value ([1]; assay pH 6) is reported as “++++” and the “Lysozyme activity against Micrococcus lysodeikticus (in words)” value [2] is reported as “good activity”. For the same molecule, the “Lysozyme Activity against Micrococcus lysodeikticus as measured by Optical Density Drop” value ([2]; assay pH 5) was “++++”, the “Diameter of clearing zone (mm)” value ([3]; Experiment 1, 1/2 MHB pH 6) was 10 mm and the “Diameter of clearing zone (mm)” value ([3]; Experiment 1, 1/10 MHB pH 7) was 9 mm. The “Diameter of clearing zone (mm)” value ([3]; Experiment 2, 1/10 MHB pH 7) was 7 mm, the “Antimicrobial activity” value ([3]; 50% MHB, pH 6) was “significant activity” and the “Antimicrobial activity” value [3, 6] was “showed antimicrobial activity”.

B5: SEQ ID NO: 280: mature GH24 lysozyme from Acremonium alcalophilum, mature sequence of SEQ ID NO: 6 of WO 2013/076259; no LED (protein, listed as Acremonium alcalophilum)
chain: QCVGPAINSAALNLIKEFEGWRPNIYRDPVGLPTVGYGHLCRDSSCSDVPYPIPLSVANGERLLRSDLATASSVVLNANQYGALVSWAFNVGCGATSTSTLIRRLNAGESPNTVAAQELPRWNKAGGQVLPGLVRRRAAEVELHRTSTSVRALPACS
modifications: mat_peptide (1)..(157)
notes: no LED
With B5 the “Lysozyme Activity against Exiguobacterium undae as measured by Optical Density Drop” value ([1]; assay pH 3-7) was “−”, the “Lysozyme activity against Micrococcus lysodeikticus (in words)” value [2] was “small amount of activity” and the “Lysozyme Activity against Micrococcus lysodeikticus as measured by Optical Density Drop” value ([2]; assay pH 4.5) was “+”. For the same molecule, the “Diameter of clearing zone (mm)” value ([3]; Experiment 1, 1/2 MHB pH 6) was 0 mm, the “Diameter of clearing zone (mm)” value ([3]; Experiment 1, 1/10 MHB pH 7) was 0 mm and the “Diameter of clearing zone (mm)” value ([3]; Experiment 2, 1/10 MHB pH 7) was 0 mm. The “Antimicrobial activity” value [3, 6] was “do not have any activity; also recorded: did not inhibit growth”.

B6: SEQ ID NO: 273: mature LED (lysozyme enhancing domain) from Trichophaea saccata (protein)
chain: YPVKTDLHCRSSPSTSASIVRTYSSGTEVQIQCQTTGTSVQGSNVWDKTQHGCYVADYYVKTGHSGIFTTKCG
modifications: mat_peptide (1)..(73)
notes: mature LED (lysozyme enhancing domain) from Trichophaea saccata
With B6 the “Binding of LED protein to crystalline cellulose (in words)” value [4] was “did not bind”, the “Binding of LED protein to crystalline cellulose (in words)” value ([4]; listed as LED protein) was “could not bind” and the “Result: LED band intensity on an SDS gel (supernatant after incubation)” value ([4]; Suspension: Avicel, 30 minutes room temperature) was “+++”. The “Binding of LED protein to M. lysodiektikus cells (in words)” value [5] was “binds”, the “Binding of LED protein to M. lysodiektikus cells (in words)” value ([5]; listed as LED protein) was “able to bind” and the “Result: LED band intensity on an SDS gel (supernatant after incubation)” value ([5]; Suspension: M. lysodeiktikus, 30 minutes room temperature) was “+”. For the same molecule, the “Result: LED band intensity on an SDS gel” value ([5]; Suspension: None (untreated LED sample, reference for both suspensions)) was “+++”.
